Test results taken from the supplement of paper PMC9170038.

System: MS2 coat protein
Assay: apparent KD of MS2 coat protein; designed switch direction (-1 OFF switch, 1 ON switch): -1; higher = weaker reporter binding
In short: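 Designed RNA switches sharing common flanks were transcribed on Illumina chips by stalled E. coli RNA polymerase. They were titrated with SNAP-549-labelled MS2 coat protein, from 0.7 or 1.5 nM doubling to 3 µM, in Tris-HCl pH 7.5 buffer with KCl, MgCl2, BSA, DTT, tRNA and Tween-20. Titrations ran without input, with 200 uM small-molecule ligand, or with an oligonucleotide input. The apparent KD of each design is the median over its clusters, after curve-fitting of normalised cluster fluorescence.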

[1] = input ligand: microRNA oligo, concentration not stated
[2] = Eterna round: R95, input ligand: FMN 200 uM
[3] = Eterna round: R95, input ligand: microRNA oligo, concentration not stated
[4] = Eterna round: R95, input ligand: none

Sequence | apparent KD of MS2 coat protein (input ligand: FMN 200 uM) [nM] | apparent KD of MS2 coat protein [1] [nM] | apparent KD of MS2 coat protein (input ligand: none) [nM] | apparent KD of MS2 coat protein [2] [nM] | apparent KD of MS2 coat protein [3] [nM] | apparent KD of MS2 coat protein [4] [nM]
UCAAUUUUGACAGGAUAUAGUUUUUGUUUCUCUCUAGAAGGGUCUGUGUACAUGAGGAUCACCCAUGUUCUUCUUAUUUAUAUU [JR_ExcNG1_Sub014] (Eterna round: R96, puzzle: Exclusion NG 1) | 28.4 | 28.6 | 36.7 |  |  | 
CACAAGCUUUUUUGAUGCAUUUUAGUGGGUGUGGGUUGGACAUGAGGAUCACCCAUGUUUAUGAAGCUCGAUCUUUU [JR_SV3TOV2_Sub081] (puzzle: Sensor v3, turn-off variant 2) |  |  |  | 92.7 | 170 | 124
GGUCUACAUGAGGAUCACCCAUGUAAGGAUAUCGUCACUGGAGCCUCGGCUCCAGUGACGAGAAGGUACGUAAU [E1/12-A2] (Eterna round: R97, puzzle: Exclusion 1) | 31.5 |  | 34.5 |  |  | 
GCAGCGUAUGUAGGAUAUCGGUCAGUUUCUGAUCGAGAAGGACAUGAGGAUCACCCAUGUAUUAUCAUGCGUGAGCAUGGCUGC [JL ENG1 3.71] (Eterna round: R96, puzzle: Exclusion NG 1) | 499 | 115 | 152 |  |  | 
AGUACUAACACGGGUGUGUUAGUACAAUAAGCUUGUGAAACAUGAGGAUCACCCAUGUCCUCAUAAGCUCGUCUUAU [salish99_TOv2_r3_075] (puzzle: Sensor v3, turn-off variant 2) |  |  |  | 15.4 | 926 | 14.4
AGAUUAAUAGUAAGGAUAUGAUGCAGGAAACUGCGUCAGAAGGUACAUGAGGAUCACCCAUGUUAAACUAAUUU [Explosion 7 - Jieux - Brourd's mod of Exclusion 4] (Eterna round: R97, puzzle: Brourd's mod of Exclusion 4) | 17.4 |  | 15 |  |  | 
ACAUGUGUUGUAGGAUAUAGGAUACAUGAGGAUCACCCAUGUGGAUUCAUGUCUAAGGAAGCGUCCUAGAAGGACGACAACAUG [Ex NG2 #25] (Eterna round: R96, puzzle: Exclusion NG 2) | 83 | 21.6 | 27.6 |  |  | 
ACAUGUGUUGUAGGAUAUAGGAUACAUGAGGAUCACCCAUGUGGAUUCAUGUCAAAGGAAGCGUCCUAGAAGGACGGCAACAUG [Ex NG2 #24] (Eterna round: R96, puzzle: Exclusion NG 2) | 46.6 | 38.3 | 49.6 |  |  | 
CUCCUACAUGAGGAUCACCCAUGUCAGGAUAUCUCAGUGGCACCUAAAGGCGCCACCCAGAGAAGGGACGUGCA [Soistiis] (puzzle: Exclusion 1) |  |  |  |  | 10.6 | 
UGAGUGCUGCGAGGAUAUACAUGAGGAUCACCCAUGUAAUCGUGUGAGGCAAAGCCUCACACGAAGUAGAAGGCGCAGUACUCU [Mat - Exclusion NG 2 - Mod of JL - D17] (Eterna round: R96, puzzle: Exclusion NG 2) | 16 | 11.4 | 18.5 |  |  | 
UAAGAGUGAGGAUAUACGUCGCUGGUCCGGAUGGACGCAUGACAUGAGGAUCACCCAUGUAGAAGGCACAAAAC [Enxela] (puzzle: Exclusion 2) |  |  |  |  | 26.8 | 
AAAGUUCGAGGAUAUCUACUUAGCUACAUGAGGAUCACCCAUGUUAUCCUCCCGCUGGGAAGAGAAGGCGGUUAAA [Xeonceso] (Eterna round: R96, puzzle: Exclusion 5) | 138 | 27.1 | 34.1 |  |  | 
AUGUAAGCGGAGGAUAUCUGGUGGAUACAGAUGGGAGAAGGUCGCACAUGAGGAUCACCCAUGUCGCAGAGAUG [Eternabot (L2) Solution 83] (Eterna round: R97, puzzle: Exclusion 6) | 44.1 |  | 55.3 |  |  | 
AGCGAGGCAGGAUAUACAUGAGGAUCACCCAUGUACUUGUAUGGCGUGGAACAUCGUGGUAGAAGGGCCGUGCU [EX3 #81] (Eterna round: R97, puzzle: Exclusion 3) | 101 |  | 355 |  |  | 
UUUAAUUUUUUUUUUUUACAAGCUUUUUGCUCGUCUUAUACAUGAGGAUCACCCAUGUAAGUGGGAGAUAAAUUAUC [JMF 21] (puzzle: Sensor v3, turn-off variant 2) |  |  |  | 76.6 | 53.3 | 90.4
CAGUACUGAGGAUAUACAUGAGGAUCACCCAUGUGUCCUAGCUAGGAUACUAGCAUUAGUAGAAGGCAGUACUG [Fiskers Ex 3 828 mod 7] (puzzle: Exclusion 3) |  |  |  |  | 19.8 | 
GCUUGGCGAGGAUAUACAUGAGGAUCACCCAUGUGAGAGAAAAAAGUGAGGAAGAAAAGUAGAAGGCGCUGAGG [Mat - Exclusion 3 - Mod of Salish D57] (puzzle: Exclusion 3) |  |  |  | 143 | 51.2 | 61.8

Sequence | apparent KD of MS2 coat protein (input ligand: FMN 200 uM) [nM] | apparent KD of MS2 coat protein [1] [nM] | apparent KD of MS2 coat protein (input ligand: none) [nM] | apparent KD of MS2 coat protein [2] [nM] | apparent KD of MS2 coat protein [3] [nM] | apparent KD of MS2 coat protein [4] [nM]
UGAUCUAGCGGAGGAUAUACAUGAGGAUCACCCAUGUAGUAGUCUGUACCGUAGUGCAGACUUGUGUAGAAGGCCGCUAGAUCU [JL ENG2 3.61] (Eterna round: R96, puzzle: Exclusion NG 2) | 15.8 | 10.8 | 14.1 |  |  | 
AGUUGGCGAGGAUAUACAUGAGGAUCACCCAUGUGGGAGAUACUAGUGAGGUCGAUUAGUAGAAGGCGCUGACA [Mat X3R4 m8] (Eterna round: R97, puzzle: Exclusion 3) | 566 |  | 209 |  |  | 
UUCGUGCAGCUUUGCUGUACGAGUACAUGAGGAUCACCCAUGUAGGAUAUGGUACGCUUUGCGUGCUAGAAGGAUAUGUGUAGG [JL EXNG3 1.37] (Eterna round: R96, puzzle: Exclusion NG 3) | 55.5 | 27.5 | 43.9 |  |  | 
AGCCCUGCAGGAUAUGCCCGGGAUAACAUGAGGAUCACCCAUGUGACCGAUUGUUAAUCUGCAGAAGGGCAUGGGA [JL-EX5-4.18 ViennaUCT mod] (Eterna round: R97, puzzle: Exclusion 5) | 313 |  | 563 |  |  | 
AGUAUGCGGCAGGAUAUCCAUCCGCGGUGAGGUGGAGAAGGGCUGACAUGAGGAUCACCCAUGUGCGUCCUGUA [salish99_ex6_r4_027] (Eterna round: R97, puzzle: Exclusion 6) | 29.4 |  | 21 |  |  | 
GAAAAGGCAGAGGAUAUUUCAGAUCAAAGCUGCAAAGAAGGCUGCACAUGAGGAUCACCCAUGUGGUCUUAAAA [Mod of Quesina 5 - Jieux - Exclusion 6] (Eterna round: R97, puzzle: Exclusion 6) | 176 |  | 18.4 |  |  | 
AUCGUGCAGCUUUGCUGUACGAGUACAUGAGGAUCACCCAUGUAGGAUAUGGUACGCAAAGCGUGCUAGAAGGAUAUGAGAUGU [Mat - Exclusion NG 3 - Mod of JL - D98] (Eterna round: R96, puzzle: Exclusion NG 3) | 30.4 | 25.2 | 31.6 |  |  | 
UUUUGACAAGCGAGAUCCUACAUGAGGAUCACCCAUGUUGACCAUGGUUUCCAUGGUCUUUUUGCUCGUCUUGUGUG [jl TITIN mod 4] (Eterna round: R97, puzzle: Sensor, turn-off variant 1) | 21.5 |  | 21.8 |  |  | 
GUUAACGAUCAGGAUAUAUCAAAUCAUAGCUUGAUAGAAGGGAUCACAUGAGGAUCACCCAUGUGAUCUUCUUU [jl-ex6-4.14 ViennaUCT mod] (Eterna round: R97, puzzle: Exclusion 6) | 15.3 |  | 11.7 |  |  | 
GGAUCGAAUGUCAGGAUAUACCACUGGAUACAGUGGUAGAAGGGACAUGAGGAUCACCCAUGUGUUAUCGAUCC [Fiskers BMX 4 - 56] (puzzle: Brourd's mod of Exclusion 4) |  |  |  |  | 36.5 | 
ACAUGAGGAUCACCCAUGUGACAAUAAUGGCUGAUACAGAGACAGGAUAUACGUGAAUAUCUAACGUAGAAGGGUCAUGACUGG [Deportation 70 - Jieux - Exclusion NG 3] (Eterna round: R96, puzzle: Exclusion NG 3) | 30.5 | 35.8 | 41.9 |  |  | 
UUUUAACAUGAGGAUCACCCAUGUGAGGAUAUCGAAAUUUAUAUUUAUAUUUAUAUAUCGAGAAGGCACAUUUU [JMF 96] (puzzle: Exclusion 1) |  |  |  |  | 118 | 
ACAAGCUUUUUGUUCGUCUUAUACACUCCUAAUAAGACAACAUGAGGAUCACCCAUGUAAGAAAUAAGAACUCAUGU [Sesor Array 4 - Jieux - Sensor v3, turn-off variant 2] (puzzle: Sensor v3, turn-off variant 2) |  |  |  | 292 | 595 | 381
UGAGUGCUGCGAGGAUAUACAUGAGGAUCACCCAUGUAAUCGUGUGAGGCUAUGCCUCACACGAAGUAGAAGGCGCAGUACUCU [Mat - Exclusion NG 2 - Mod of JL - D16] (Eterna round: R96, puzzle: Exclusion NG 2) | 9.98 | 8.33 | 9.63 |  |  | 
CAGUACUGAGGAUAUACAUGAGGAUCACCCAUGUCUUAAAAGUAGGAUACUACUAUUAGUAGAAGGCAGUACUG [Fiskers Ex 3 828 mod 24] (Eterna round: R96, puzzle: Exclusion 3) | 38.5 | 12.3 | 17 |  |  | 
GUCGUACAUGAGGAUCACCCAUGUGAGGAUAUGGGCGGCGCCGCAAAAGCGGCGCCGCCCAGAAGGCGCAUGAU [Malcxlusion 6 - Jieux - Exclusion 1] (Eterna round: R97, puzzle: Exclusion 1) | 234 |  | 79.6 |  |  | 
